The target of one experiment is Rvb2-R350A (S. cerevisiae, UniProt Q12464 1-471, R350A). In words: SEC. Background: Size exclusion chromatography separates by hydrodynamic size, large species first.
Another experiment addresses Rvb2 (S. cerevisiae, UniProt Q12464 1-471). Nature of the experiment: SEC.

Chain of Rvb2-R350A (Q12464 whole entry R350A): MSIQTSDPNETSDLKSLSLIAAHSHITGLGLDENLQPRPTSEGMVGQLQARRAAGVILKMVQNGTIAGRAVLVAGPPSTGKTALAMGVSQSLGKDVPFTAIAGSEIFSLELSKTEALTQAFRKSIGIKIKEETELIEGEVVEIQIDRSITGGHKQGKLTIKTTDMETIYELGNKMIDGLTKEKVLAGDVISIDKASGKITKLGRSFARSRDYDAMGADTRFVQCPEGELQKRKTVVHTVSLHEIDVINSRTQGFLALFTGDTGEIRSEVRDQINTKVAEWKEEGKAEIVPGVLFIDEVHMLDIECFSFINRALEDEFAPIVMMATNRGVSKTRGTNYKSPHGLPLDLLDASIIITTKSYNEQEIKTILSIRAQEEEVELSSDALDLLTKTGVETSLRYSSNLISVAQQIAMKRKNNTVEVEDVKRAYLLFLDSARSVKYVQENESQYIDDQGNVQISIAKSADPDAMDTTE
Chain of Rvb2 (Q12464 whole entry): as the sequence (Q12464 whole entry R350A) above, with A350R counted along it

B1: Rvb1 (enzyme)
chain: MVAISEVKENPGVNSSNSGAVTRTAAHTHIKGLGLDESGVAKRVEGGFVGQIEAREACGVIVDLIKAKKMSGRAILLAGGPSTGKTALALAISQELGPKVPFCPLVGSELYSVEVKKTETLMENFRRAIGLRIKETKEVYEGEVTELTPEDAENPLGGYGKTISHVIVGLKSAKGTKTLRLDPTIYESIQREKVSIGDVIYIEANTGAVKRVGRSDAYATEFDLETEEYVPLPKGEVHKKKEIVQDVTLHDLDVANARPQGGQDVISMMGQLLKPKKTEITEKLRQEVNKVVAKYIDQGVAELIPGVLFIDEVNMLDIEIFTYLNKALESNIAPVVVLASNRGMTTVRGTEDVISPHGVPPDLIDRLLIVRTLPYDKDEIRTIIERRATVERLQVESSALDLLATMGTETSLRYALQLLAPCGILAQTSNRKEIVVNDVNEAKLLFLDAKRSTKILETSANYL
For B1, the binding result with Rvb2-R350A and with Rvb2 was “binds” throughout.

B2: Rvb1-R366A (enzyme)
chain: MVAISEVKENPGVNSSNSGAVTRTAAHTHIKGLGLDESGVAKRVEGGFVGQIEAREACGVIVDLIKAKKMSGRAILLAGGPSTGKTALALAISQELGPKVPFCPLVGSELYSVEVKKTETLMENFRRAIGLRIKETKEVYEGEVTELTPEDAENPLGGYGKTISHVIVGLKSAKGTKTLRLDPTIYESIQREKVSIGDVIYIEANTGAVKRVGRSDAYATEFDLETEEYVPLPKGEVHKKKEIVQDVTLHDLDVANARPQGGQDVISMMGQLLKPKKTEITEKLRQEVNKVVAKYIDQGVAELIPGVLFIDEVNMLDIEIFTYLNKALESNIAPVVVLASNRGMTTVRGTEDVISPHGVPPDLIDALLIVRTLPYDKDEIRTIIERRATVERLQVESSALDLLATMGTETSLRYALQLLAPCGILAQTSNRKEIVVNDVNEAKLLFLDAKRSTKILETSANYL
Regarding B2, the binding result with Rvb2-R350A and in the experiment with Rvb2 was “binds” throughout.

Source of the values: publication PMC11118528 (bioRxiv, 2024).
